Biological target: the molecule itself
Test: native gel or EMSA; lysate in non-denaturing lysis buffer (20 mM Tris-HCl, 137 mM NaCl, 10% glycerol, 1% Triton X-100, 2 mM EDTA, pH 8.0), 5 ug on a 4-15% gel run without SDS, compared with a denaturing gel; Western blot with anti-HA

B1: HA-tagged wild-type HMX1 (natural protein)
chain: not shown
notes: HMX1 (NKX5-3), wild type; also called HA-HMX1; source: HEK 293T, transfected, in lysate
Question: With B1 as the protein, how does the “stoichiometry N” value read?
Answer: The value was 2.

Reference: paper PMC4063770, “A Dimerized HMX1 Inhibits EPHA6/epha4b in Mouse and Zebrafish Retinas” (PLoS ONE, 2014)
